We go through 30 sequences from the nanobody polyreactivity screen of Harvey et al. (2022).

The data set is described as follows: yeast display, Sf9 membrane polyspecificity reagent, FACS + sequencing; frameworks hold sequencing errors. The procedure, abridged: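 After 36–48 hours of galactose induction, yeast (Saccharomyces cerevisiae BJ5465) displaying a synthetic nanobody library were stained at 4 °C for 1 hour with 10% biotinylated, detergent-solubilized Sf9 membrane reagent. Streptavidin microbeads enriched the stained cells before FACS sorting into low and high (top ~1%) gates on anti-HA and streptavidin fluorescence. Each clone's polyreactivity label reflects its gate of origin.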
Consider “QFQLVESGGGLVQAGVSLRLSCAASGRIFSLYAMGWYRQAPGKERELVAAISYSGGSTYADSVKGRFTFSRDNAKNTVFLQMNSLKPEDTAVYYCAAEEYLAYAQFDYWGQGTQVTVSS”, for which the “polyreactivity (PSR sort gate)” value is reported as “low polyreactivity”.
For the sequence “QFQLVESGGGLVQAGVSLRLSCAASGSIIKYYAMGWYRQAPGKERELVATINWNGGSTYYADSVKGRFTISRDNAKNTVYLQMNSLKPEDTAVYYCAAGYRGSYYHSHYEYLGQGTQVTVSS”, the “polyreactivity (PSR sort gate)” value is “high polyreactivity”.
With “QFQLVESGGGVVQAPGSLRLSSAASGSLFTVYAMGWYRQAPGKERELVAAISYGGGSTYYADSVKGRFTISRDTAKNTVYLQMNSLKQEDTAVYYCAADPYYSYGYYHAHGRDVGYWGQGTQVTVSS”, the “polyreactivity (PSR sort gate)” value is “low polyreactivity”.
With “QFQLVESGRGLVQAGGSLRLSCAASGSTILYYAMGWYRQAPGTERELVAAISSSDGSTYYADSVKGRFTISRDNAKYTVYLQMNSLKPEDTAVYYCNADFYWGYNYWGQGTQVTVSS”, the “polyreactivity (PSR sort gate)” value is reported as “high polyreactivity”.
The same measure for “QFQLVESVGGLVQAGGSLRLSCAASGRTFVDYDMGCYRPAPGKERELVAAIRRGGSTTYEDSVKGRFTISRDNAKNTVYLQMNSLKPEDTAVYYCATDNTYGSDYWGQGTQVTVSW”: “high polyreactivity”; for “QFQLVESVGGLVQAGGSLRLSLASSGSIFGPNTMGWYRQAPGKERELVAAIRGGGSTNYADSVKGRFTISRDNAKNTVYLQMNSLKPEDTAVYYCNATWNLFPGFLDRYDYWGQGTQVTVSS”: “low polyreactivity”.
Take “QFQLVETVGGLVQAGGSLRLSCAASGFTYKSYAMGWYCQAPVKERELVASISRRGGSTYYADSVKGRFTISRDNAKNNVYLQMNSLKPEDTAVYYCNKYFRYRGDYDYWGQGTQVTVSS”: the “polyreactivity (PSR sort gate)” value was “high polyreactivity”.
In the case of “QGHLDESGGGIVQAGGSLRLSCAASGITVVTYAMGWYRQAPGKERELVAAISRSGGRTYYADSVKGRFTISRDNAKNTVYLLMNSLKPEDTAVYYCAAERKNKYDYWGQGTQVTVSS”, the “polyreactivity (PSR sort gate)” value was “high polyreactivity”.
For “QGHREESGGGLVQAGGSLRLSCAASGSTFGIYALGWYIQEQGKERELVAAITWSGSSTYYADSVKGRFTISRDNAKNNVYLQINSLKPEDTAVYYCAAEDTLYEYYYWGQGTQVTVSS”, the “polyreactivity (PSR sort gate)” value was “high polyreactivity”.
The same measure for “QGKLVESGGGLVQAGGSLRLTCPASGSIFRLNTMGWYRQAPGKEREFVAAISKGGTSTYYADSVKGRFTISRDNAKNTVYLQLTSLIPEDTAVYYCARKRYPSAPFQYDYWGQGTQVTVSS”: “high polyreactivity”; for “QGQLEESGGGLFQAGGSLRLSCAASGRIFLYNGMGWYRQAPGKERELVAGITTGGNTNYADSVKGRFTISRDNAKNTVYLQMNSLKPEDTAVYYCAAEVIVYGWSPDYDYWGQGTQVTVSS”: “low polyreactivity”.
For “QGQLGESGGGLVQAGGSLRLSCAASGIIFTWYVMGWYRQAPGKERELVAAISASGASTYYADSVKGRFTISRDNAKNTVYLQMHSLNPEDPAVNYCNRYPTDGRTSYVTYYYWGQGTQVTVSS”, the “polyreactivity (PSR sort gate)” value is given as “high polyreactivity”.
For “QGQLGEYGGGLVQAGGSLRLSCAAYGRTVYYYAMGWYRQEPGKDREFVAGITATGSSTYYADSVKGRFTISRDNAKNTVYLQMNSLKPEDTAVYFCAADRYTTYSGQWSYPYDYWGQGTQVTVSS”, the “polyreactivity (PSR sort gate)” value is recorded as “low polyreactivity”.
“QGQLQESGGGLVQAAGSLRMSCAASGTIFSEANMGWYRQAPGQVRELVATIGQGSTTNYADSVKGRFTISRDNAKNTVYLQMISLKPEETGVYYCAVVTVDPVGFVYWGQGTQVTVSS”: the “polyreactivity (PSR sort gate)” value is reported as “low polyreactivity”.
As to “QGQLVESAGGLGQAGGSLRLSCAASGRTLGRYVMGWYRQGPGQVRELVAAISARTGSTYYADSVKGRFTISRDNAKNTVYLQMNSLKPEDTAVYYCATKFSSYDTRVSYDYWGQGTQVTVSS”, the “polyreactivity (PSR sort gate)” value is reported as “low polyreactivity”.
For “QGQLVESAGGLVQAAGSLRLSCAASGITFHYYAMGWYRQAPGKERELVAAIDGSDTDTYYADSVKGRFTISRDNAKNTVYLQMNSLKQEDTAVYYCAAEYTYAALARNDDYWGQCTQVTVSS”, the “polyreactivity (PSR sort gate)” value was “high polyreactivity”.
As for “QGQLVESAGGLVQAGGSLRLSCAASGSTFDYYTIGWYRQAPGKERELVAAISSSGGSTYYADSVKGRFTISRANAKNTVYLQMNSLKPVDTAVYYCAAKWDWGYGRGFQYGFNYWGQGTQVTVSS”, the “polyreactivity (PSR sort gate)” value is “low polyreactivity”.
As to “QGQLVESCGGLVQAGGSLLLSCAASGRIFRSYAMGGYRPAPGKERELVASMSTGGSTNYADSVKGRFTFSRDTAKNSGYLQKNRLKPEDTAVYYCAAGPYYKYWGQRYNYWGQGTQVTVSS”, the “polyreactivity (PSR sort gate)” value is on record as “high polyreactivity”.
On to “QGQLVESGGALVQAGGTLRLSCAASGIIFSGNGMGWYRQAPGNVRELVAAITAGAGTNYADSVKGRFTISRDNAKNSVYLQMHSLKPEDPGVYYCAVDGRSVPAWWPRFDYWGQGTQVTVSS”, for which the “polyreactivity (PSR sort gate)” value is given as “low polyreactivity”.
The same measure for “QGQLVESGGCLVQAGGSLRLSCAASGIIFWSYAMGWYRQAPGKERELVAAISRRGGSTSYADSVKGRFTISRDNAKTTVYLQMNSLKPEDTAVYYCAADRYFNPKSYSTEFDYWGQGTQVTVSS”: “high polyreactivity”; for “QGQLVESGGGFVQAGGSLRLSCDASGNIFSANAMGWYRQAPWKEREFVAAISSTGGSTYYADSVKGRFTISRDNEMNTLYLQMNCLKPEDTAVYYCAAYIRRYFHYDYWRQGTQVTVSS”: “high polyreactivity”; for “QGQLVESGGGIVQAGGSLRLSCAASGFNFWQYAMGLYRQAPGKERELVAAITSSGTSTYYADSVKGLFTISRDNAKNTVYLQMNSLKPEDTAVYSCAADLGYYDLYYWGQGTQVTVSS”: “low polyreactivity”.
“QGQLVESGGGLDQAGVSLRLSCAASGFIFSFDNAMGWYRQAPGTERELVAAISSGTTTHYADSVKGRFTISRDNAKNTVYLQMNSLKPEDSAVYDCAADSVKQVRYGNVGHDDWGQGTQVTVSS”: the “polyreactivity (PSR sort gate)” value was “low polyreactivity”.
With “QGQLVESGGGLVHAGGRLRLSCAASGSTFTTYAMGWYRQAPGTERELVAAISTNGGRTFYADSVKGRFTISRDNAKTTFYLQMNSLKTEDTAVYYCAAQYGLYAPGYYYWGHGTQVTVSS”, the “polyreactivity (PSR sort gate)” value is given as “low polyreactivity”.
For “QGQLVESGGGLVQAGGRLRLSCAASGYNFGSYAMGWYRQAPGKERELVAAISGGGSTNYADSVKGRFTISRDNAKNTVYLQMHSLKPEDTAVYYCAAYPYLYPLRFEEYDHWGQGTQVTVSS”, the “polyreactivity (PSR sort gate)” value is “low polyreactivity”.
As to “QGQLVESGGGLVQAGGSIRLSCAASGSTTFYAMGWYRQAPGKEWELVATISSSAGSTYYADSVKGRFTISRDNAKNTVYLQMNSLKPEDTAFYYCAKAAYGNSYTSDYWGQGTQVTVSS”, the “polyreactivity (PSR sort gate)” value is “low polyreactivity”.
“QGQLVESGGGLVQAGGSLRLSCAASARTYGNYAMGRYREAPGKERELVADITRRGGSTSYADSVKGRFTISRDNAKNTVYLQMNSLKPEDTAVYYCNKRTTPYYSQGITRIEYDYWGQGTQVTVSS”: the “polyreactivity (PSR sort gate)” value is on record as “low polyreactivity”.
For “QGQLVESGGGLVQAGGSLRLSCAASGFIFFSNAMGWYRQEPGKERELVAAISRIGVSTYYADSVKGRFTISRDNAKNTVYLQLNSLKPEDTAVYYCAADLSDYWRGDSWGQGTLVTVSS”, the “polyreactivity (PSR sort gate)” value is on record as “low polyreactivity”.
The same measure for “QGQLVESGGGLVQAGGSLRLSCAASGFIFSSNAMGLYRHAPGKERELVAAISSSGGNTYYADSVKGRFTISRDNAKKTVDLQMNSLKPEDTAVYYCAADLSSAYGHDYWGLGTQVTVSS”: “low polyreactivity”.
The same measure for “QGQLVESGGGLVQAGGSLRLSCAASGFTFGHYAMGWYRQAPGKERELVAAIRWSGGSTYYADSVKGRFTISRDNAKNTVYLQMNSLKPEDTAVYYCAARGFDGYEYDYWGQGTQVTVSS”: “low polyreactivity”.
